Results on two substances are retold here after publication doi:10.1101/2020.08.11.244863.

Test [1] concerns the target SARS-CoV-2 Nsp15 H235A (SARS-CoV-2). Briefly: SEC. A general note: In gel filtration, larger molecules generally elute earlier.
Test [2] has the same target. The experiment in a line: cryo-EM structure.
Test [3] has as its target SARS-CoV-2 Nsp15 H250A (SARS-CoV-2). Briefly: SEC.

One may read the stoichiometry N as the number of molecules, sites or subunits per partner or assembly. Consider SARS-CoV-2 Nsp15 H235A (enzyme), for which the stoichiometry N in test [1] and in test [2] was 6 in each case.

In test [3], SARS-CoV-2 Nsp15 H250A (enzyme) returned a stoichiometry N of 6.
